One experiment has as its target T1, Tra1 (S. cerevisiae, UniProt P38811 1-3744).
T1 construct: Tra1, S. cerevisiae, largest SAGA subunit (SPT module), 3744 residues as printed; Endogenous subunit; Purification methods and any tag are in the Supplementary Materials; also called Tra1_(SAGA); lobe A; source: endogenous, in the native SAGA complex purified from fermented S. cerevisiae cells
Briefly: cross-linking; chemical cross-linking of proteins coupled with mass spectrometry (CXMS) on the purified native SAGA complex; 139 unique inter- and 184 unique intra-subunit cross-linking pairs. The conditions noted are these: both partners purified.

The target of a further experiment is T2, Spt7 (S. cerevisiae, UniProt P35177 1-1332).
T2 construct: Spt7, S. cerevisiae, second largest SAGA subunit (SPT module); source: endogenous, in the native SAGA complex purified from fermented S. cerevisiae cells
T2 sequence (looked up): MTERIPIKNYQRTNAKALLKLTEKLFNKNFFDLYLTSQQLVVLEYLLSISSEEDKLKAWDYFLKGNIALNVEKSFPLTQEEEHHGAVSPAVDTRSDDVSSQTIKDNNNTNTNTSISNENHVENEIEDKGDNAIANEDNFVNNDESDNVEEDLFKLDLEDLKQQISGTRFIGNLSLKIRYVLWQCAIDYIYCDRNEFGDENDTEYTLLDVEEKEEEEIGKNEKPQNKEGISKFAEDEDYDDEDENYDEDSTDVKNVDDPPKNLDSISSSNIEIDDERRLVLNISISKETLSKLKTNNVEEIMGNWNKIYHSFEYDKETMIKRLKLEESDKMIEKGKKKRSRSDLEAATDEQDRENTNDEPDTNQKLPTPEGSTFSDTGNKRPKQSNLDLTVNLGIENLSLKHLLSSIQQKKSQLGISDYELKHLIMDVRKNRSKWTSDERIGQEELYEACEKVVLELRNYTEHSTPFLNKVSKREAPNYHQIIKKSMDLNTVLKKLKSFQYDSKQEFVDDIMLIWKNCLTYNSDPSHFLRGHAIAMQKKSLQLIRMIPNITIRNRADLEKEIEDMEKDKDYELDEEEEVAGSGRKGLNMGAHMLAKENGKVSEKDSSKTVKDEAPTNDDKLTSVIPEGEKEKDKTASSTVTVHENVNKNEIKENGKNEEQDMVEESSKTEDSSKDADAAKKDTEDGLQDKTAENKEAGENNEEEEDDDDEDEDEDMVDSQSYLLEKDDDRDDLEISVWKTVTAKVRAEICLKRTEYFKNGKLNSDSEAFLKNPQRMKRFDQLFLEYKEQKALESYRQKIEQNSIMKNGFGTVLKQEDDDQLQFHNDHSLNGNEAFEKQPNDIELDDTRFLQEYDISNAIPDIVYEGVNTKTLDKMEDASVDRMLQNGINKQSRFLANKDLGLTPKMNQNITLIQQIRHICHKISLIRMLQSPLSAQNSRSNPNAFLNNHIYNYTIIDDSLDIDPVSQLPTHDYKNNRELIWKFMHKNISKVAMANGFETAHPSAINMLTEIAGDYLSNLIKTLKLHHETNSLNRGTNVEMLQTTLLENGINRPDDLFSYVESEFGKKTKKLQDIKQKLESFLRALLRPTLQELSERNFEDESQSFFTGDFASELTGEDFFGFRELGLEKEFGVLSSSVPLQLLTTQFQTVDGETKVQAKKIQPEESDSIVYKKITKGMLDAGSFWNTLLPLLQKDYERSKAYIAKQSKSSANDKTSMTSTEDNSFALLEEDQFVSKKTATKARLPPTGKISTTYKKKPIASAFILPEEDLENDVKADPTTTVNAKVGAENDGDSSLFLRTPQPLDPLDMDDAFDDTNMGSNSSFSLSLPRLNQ
Described as above. The conditions noted are these: both partners purified.

The values below come from PMC6502868, “Architecture of Saccharomyces cerevisiae SAGA complex” (Cell Discovery, 2019).

T1 sequence (P38811 whole entry): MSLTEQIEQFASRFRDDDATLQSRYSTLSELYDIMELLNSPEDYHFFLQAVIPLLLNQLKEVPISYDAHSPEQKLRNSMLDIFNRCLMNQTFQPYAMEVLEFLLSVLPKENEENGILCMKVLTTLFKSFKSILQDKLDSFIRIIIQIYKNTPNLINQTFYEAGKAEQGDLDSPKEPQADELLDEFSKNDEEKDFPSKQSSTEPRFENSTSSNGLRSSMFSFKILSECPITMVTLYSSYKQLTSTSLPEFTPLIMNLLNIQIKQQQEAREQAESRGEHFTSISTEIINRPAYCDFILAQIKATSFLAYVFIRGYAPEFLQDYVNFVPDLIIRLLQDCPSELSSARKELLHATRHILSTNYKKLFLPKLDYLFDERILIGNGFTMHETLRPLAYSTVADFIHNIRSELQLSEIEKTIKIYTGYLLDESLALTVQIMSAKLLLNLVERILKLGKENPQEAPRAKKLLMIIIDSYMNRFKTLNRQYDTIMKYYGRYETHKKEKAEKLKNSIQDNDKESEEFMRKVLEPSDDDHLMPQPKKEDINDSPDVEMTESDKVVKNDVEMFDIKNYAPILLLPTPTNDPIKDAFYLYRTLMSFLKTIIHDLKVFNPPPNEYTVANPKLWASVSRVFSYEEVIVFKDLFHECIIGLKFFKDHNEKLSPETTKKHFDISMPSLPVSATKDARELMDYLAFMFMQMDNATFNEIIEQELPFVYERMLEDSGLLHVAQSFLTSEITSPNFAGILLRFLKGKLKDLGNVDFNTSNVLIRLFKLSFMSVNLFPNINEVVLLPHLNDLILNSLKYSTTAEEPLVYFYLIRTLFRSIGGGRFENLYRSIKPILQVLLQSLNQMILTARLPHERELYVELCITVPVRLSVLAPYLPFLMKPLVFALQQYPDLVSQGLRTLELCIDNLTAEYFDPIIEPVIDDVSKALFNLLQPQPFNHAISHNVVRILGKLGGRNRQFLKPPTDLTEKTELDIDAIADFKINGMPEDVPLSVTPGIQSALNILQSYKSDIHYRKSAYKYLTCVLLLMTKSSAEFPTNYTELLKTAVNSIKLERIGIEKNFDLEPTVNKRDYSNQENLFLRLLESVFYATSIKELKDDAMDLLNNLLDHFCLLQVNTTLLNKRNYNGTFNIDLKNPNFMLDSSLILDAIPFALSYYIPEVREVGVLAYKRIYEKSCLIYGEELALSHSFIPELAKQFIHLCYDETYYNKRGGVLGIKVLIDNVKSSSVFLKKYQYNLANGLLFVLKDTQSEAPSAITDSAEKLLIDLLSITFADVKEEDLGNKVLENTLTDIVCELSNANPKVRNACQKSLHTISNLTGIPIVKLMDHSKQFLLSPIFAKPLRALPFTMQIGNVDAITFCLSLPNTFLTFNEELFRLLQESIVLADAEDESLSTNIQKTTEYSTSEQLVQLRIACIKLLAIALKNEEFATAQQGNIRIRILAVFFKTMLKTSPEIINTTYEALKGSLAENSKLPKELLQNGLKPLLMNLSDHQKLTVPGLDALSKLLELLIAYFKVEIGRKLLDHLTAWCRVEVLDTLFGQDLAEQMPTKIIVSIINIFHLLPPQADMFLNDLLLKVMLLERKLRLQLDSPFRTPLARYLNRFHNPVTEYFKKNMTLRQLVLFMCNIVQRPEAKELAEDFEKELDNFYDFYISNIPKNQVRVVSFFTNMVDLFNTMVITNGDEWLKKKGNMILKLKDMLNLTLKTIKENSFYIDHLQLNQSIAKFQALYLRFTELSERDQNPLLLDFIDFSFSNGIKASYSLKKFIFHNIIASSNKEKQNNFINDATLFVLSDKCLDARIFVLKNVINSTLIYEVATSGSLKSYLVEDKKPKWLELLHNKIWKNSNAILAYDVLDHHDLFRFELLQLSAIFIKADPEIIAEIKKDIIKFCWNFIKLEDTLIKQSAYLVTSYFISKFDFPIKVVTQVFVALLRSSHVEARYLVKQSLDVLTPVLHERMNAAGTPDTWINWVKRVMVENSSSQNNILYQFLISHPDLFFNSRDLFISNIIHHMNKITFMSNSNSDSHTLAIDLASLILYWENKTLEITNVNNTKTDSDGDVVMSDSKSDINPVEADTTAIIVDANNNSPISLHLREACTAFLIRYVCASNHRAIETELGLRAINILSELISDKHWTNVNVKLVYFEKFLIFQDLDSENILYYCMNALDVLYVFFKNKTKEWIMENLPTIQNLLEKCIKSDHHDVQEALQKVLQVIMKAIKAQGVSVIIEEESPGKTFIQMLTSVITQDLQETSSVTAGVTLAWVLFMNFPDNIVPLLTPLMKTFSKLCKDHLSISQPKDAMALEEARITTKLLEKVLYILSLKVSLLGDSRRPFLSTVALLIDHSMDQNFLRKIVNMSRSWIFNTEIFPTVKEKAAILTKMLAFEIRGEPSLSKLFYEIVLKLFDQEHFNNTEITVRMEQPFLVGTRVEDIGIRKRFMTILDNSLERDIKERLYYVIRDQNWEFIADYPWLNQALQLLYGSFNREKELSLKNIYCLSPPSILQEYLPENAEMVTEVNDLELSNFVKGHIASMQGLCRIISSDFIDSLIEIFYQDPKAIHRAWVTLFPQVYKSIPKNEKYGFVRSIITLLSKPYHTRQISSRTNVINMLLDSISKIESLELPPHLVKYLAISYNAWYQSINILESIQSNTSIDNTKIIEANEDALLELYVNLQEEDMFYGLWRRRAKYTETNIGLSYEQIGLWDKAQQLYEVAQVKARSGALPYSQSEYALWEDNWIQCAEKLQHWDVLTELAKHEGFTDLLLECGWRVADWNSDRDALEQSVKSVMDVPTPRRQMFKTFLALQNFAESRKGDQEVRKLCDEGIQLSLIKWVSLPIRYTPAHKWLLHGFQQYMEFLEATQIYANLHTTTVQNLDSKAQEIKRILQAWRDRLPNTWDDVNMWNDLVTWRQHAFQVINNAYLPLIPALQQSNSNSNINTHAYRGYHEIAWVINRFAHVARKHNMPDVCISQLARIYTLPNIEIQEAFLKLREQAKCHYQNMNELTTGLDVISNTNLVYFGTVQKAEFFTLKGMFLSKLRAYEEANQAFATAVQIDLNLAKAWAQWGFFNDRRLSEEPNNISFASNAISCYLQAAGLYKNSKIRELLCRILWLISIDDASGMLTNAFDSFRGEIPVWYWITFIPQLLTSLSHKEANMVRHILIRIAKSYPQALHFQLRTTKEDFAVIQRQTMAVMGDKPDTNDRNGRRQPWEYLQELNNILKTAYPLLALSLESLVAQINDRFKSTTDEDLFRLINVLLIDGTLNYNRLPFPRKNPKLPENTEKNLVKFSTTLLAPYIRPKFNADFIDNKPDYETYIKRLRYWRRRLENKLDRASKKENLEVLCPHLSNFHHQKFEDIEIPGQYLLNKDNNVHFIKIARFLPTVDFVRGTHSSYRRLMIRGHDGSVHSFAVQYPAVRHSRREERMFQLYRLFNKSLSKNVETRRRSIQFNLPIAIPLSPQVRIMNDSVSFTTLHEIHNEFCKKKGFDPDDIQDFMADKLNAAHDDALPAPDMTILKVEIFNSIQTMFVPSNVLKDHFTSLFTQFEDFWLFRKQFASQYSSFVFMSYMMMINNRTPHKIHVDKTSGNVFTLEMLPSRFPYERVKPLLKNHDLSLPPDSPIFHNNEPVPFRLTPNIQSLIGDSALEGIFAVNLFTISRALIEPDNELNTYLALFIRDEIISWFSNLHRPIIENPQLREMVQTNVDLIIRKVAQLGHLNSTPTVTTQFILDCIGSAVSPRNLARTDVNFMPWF

B1: Taf12 (natural protein, S. cerevisiae, UniProt Q03761 1-539, looked up)
chain: MSSNPENSGVNANNNTGTGNADAITGAQQNMVLQPRQLQEMAAKFRTLLTEARNVGETTPRGKELMFQAAKIKQVYDALTLNRRRQQAAQAYNNTSNSNSSNPASIPTENVPNSSQQQQQQQQQTRNNSNKFSNMIKQVLTPEENQEYEKLWQNFQVRHTSIKEKETYLKQNIDRLEQEINKQTDEGPKQQLQEKKIELLNDWKVLKIEYTKLFNNYQNSKKTFYVECARHNPALHKFLQESTQQQRVQQQRVQQQQQQQQQQQQQQQQQQQQQQQRQGQNQRKISSSNSTEIPSVTGPDALKSQQQQQNTITATNNPRGNVNTSQTEQSKAKVTNVNATASMLNNISSSKSAIFKQTEPAIPISENISTKTPAPVAYRSNRPTITGGSAMNASALNTPATTKLPPYEMDTQRVMSKRKLRELVKTVGIDEGDGETVIDGDVEELLLDLADDFVTNVTAFSCRLAKHRKSDNLEARDIQLHLERNWNIRIPGYSADEIRSTRKWNPSQNYNQKLQSITSDKVAAAKNNGNNVASLNTKK
notes: Taf12, S. cerevisiae, SAGA subunit (TAF module); source: endogenous, in the native SAGA complex purified from fermented S. cerevisiae cells
Consider B1, for which the binding result in the experiment with Tra1 and with Spt7 was “binds” throughout.

B2: Spt3 (natural protein, S. cerevisiae, UniProt P06844 1-337, looked up)
chain: MMDKHKYRVEIQQMMFVSGEINDPPVETTSLIEDIVRGQVIEILLQSNKTAHLRGSRSILPEDVIFLIRHDKAKVNRLRTYLSWKDLRKNAKDQDASAGVASGTGNPGAGGEDDLKKAGGGEKDEKDGGNMMKVKKSQIKLPWELQFMFNEHPLENNDDNDDMDEDEREANIVTLKRLKMADDRTRNMTKEEYVHWSDCRQASFTFRKNKRFKDWSGISQLTEGKPHDDVIDILGFLTFEIVCSLTETALKIKQREQVLQTQKDKSQQSSQDNTNFEFASSTLHRKKRLFDGPENVINPLKPRHIEEAWRVLQTIDMRHRALTNFKGGRLSSKPIIM
notes: Spt3, S. cerevisiae, SAGA subunit (SPT module); source: endogenous, in the native SAGA complex purified from fermented S. cerevisiae cells
As to B2, the binding result with Tra1 and with Spt7 was “binds” in each case.
